Three molecules from US20210355194A1 can be followed below.

Where two headings read alike, the source gives them in different places.

What all share (conditions): remark: other sources report otherwise
For assay [1], the target named is SARS-COV2-S1 RBD (mouse IgG2Fc tag) (SARS-CoV-2), P0DTC2. The assay can be described thus: FACS, blocks S1 RBD-mFc binding to ACE2 on Vero E6.
The target is the same in assay [2]. The assay can be described thus: FACS, S1 RBD-mFc on Vero E6 (ACE2).
Assay [3] has the same target. The assay can be described thus: column not explained; likely FACS, S1 RBD on Vero E6.
Assay [4] shares this target.
Assay [5] deals with T1, CV S-protein construct 6 trimer TP31001F (SARS-CoV-2), P0DTC2. Description: SPR.
Assay [6] concerns the target T1, CV S-protein construct 6 trimer …. Description: SPR. This is another data set of the same source.
Assay [7] addresses SARS-COV2-S1 RBD (mouse IgG2Fc tag) (SARS-CoV-2), P0DTC2. This is another data set of the same source.

B1: variant 6-3 (Fc fusion)
VHH: EVQLVESGGGLVQPGGSLRLSCAASGFTFSPSWMGWFRQAPGKEREFVATINEYGGRNYADSVKGRFTISADNSKNTAYLQMNSLKPEDTAVYYCARVDRDFDYWGQGTLVTVSS
In the case of B1, the 50% inhibitory concentration (IC50) in assay [1] stood at 0.74 nM. In assay [2], this molecule gave a Competition Factor of 9.51. In assay [3], this molecule displayed an MFI Fold Decrease of 9.51 fold.

B2: variant 6-81 (Fc fusion)
VHH: EVQLVESGGGLVQPGGSLRLSCAASGFIGNYHAMGWFRQAPGKEREFVAAVTWSGGTTNYADSVKGRFTISADNSKNTAYLQMNSLKPEDTAVYYCAREGYYYDSSGYPYYFDYWGQGTLVTVSS
Molecule B2 came in with an IC50 in assay [4] of 1.38 nM. In addition, the Kd in assay [5] and in assay [6] was 3.9 nM throughout.

B3: variant 5-50 (Fc fusion)
VHH: EVQLVESGGGLVQPGGSLRLSCAASGFSLDYYGMGWFRQAPGKEREFVAAITSGGTPHYADSVKGRFTISADNSKNTAYLQMNSLKPEDTAVYYCASAYNPGIGYDWGQGTLVTVSS
B3 came in with a Kd in assay [6] of 3.8 nM. This molecule had an IC50 in assay [7] of 1.61 nM.
